Assay results: PMC10281804, “The structural basis of the talin–KANK1 interaction that coordinates the actin and microtubule cytoskeletons at focal adhesions” (Open Biology, 2023)

Target: T1, Mouse talin-1 R7R8 (mouse, UniProt P26039 1359-1659)
T1 construct: talin-1, mouse, rod domains R7 and R8 (R7R8 double domain module); 15N-labelled for the NMR experiments; also called talin R7R8; R7R8 module; source: expressed and purified as described previously [9]
Assay: fluorescence polarisation; BODIPY-TMR coupled peptide at 0.5 µM in PBS pH 7.4, 5 mM TCEP, 0.05% Triton X-100; one-site total and nonspecific binding model
Conditions: both partners purified

T1 sequence (P26039 1359-1659): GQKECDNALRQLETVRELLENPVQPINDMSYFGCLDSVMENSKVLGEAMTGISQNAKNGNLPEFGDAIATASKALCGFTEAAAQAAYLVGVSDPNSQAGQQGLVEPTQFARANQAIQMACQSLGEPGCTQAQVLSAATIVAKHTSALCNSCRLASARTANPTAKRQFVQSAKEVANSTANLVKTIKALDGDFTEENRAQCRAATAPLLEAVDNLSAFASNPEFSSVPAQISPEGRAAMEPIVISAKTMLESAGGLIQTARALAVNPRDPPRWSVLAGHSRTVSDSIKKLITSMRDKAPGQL

B1: KANK1 KN motif peptide (for FP), BODIPY-TMR coupled (peptide)
peptide: PYFVETPYGFQLDLDFVKYVDDIQKGNTIKKC
modifications: BODIPY-TMR coupled
notes: KANK1 KN motif, mouse residues 30-60; extra C-terminal cysteine printed beyond the stated limits 30-60; also called WT-KANK1; source: synthetic peptide, bought: GLBiochem (Shanghai)
- Kd: 1.2 µM
